Assay results: publication PMC10849593 (Science Advances, 2024)
Values belong to the binder of their own block, whether it stands above or below them.

What was measured:
[1] = molecular target: T1, MutSβ WT, MSH3 subunit;MutSβ, MSH2 subunit (human;human?, UniProt P20585;P43246 1-1137;1-934, |); test: pull-down
[2] = molecular target: MutLβ (MLH1-PMS1 heterodimer) carrying a 6xHis tag on the PMS1 subunit (human, UniProt P40692;P54277); test: pull-down
[3] = molecular target: T1, MutSβ WT, MSH3 subunit;MutSβ, MSH2 …; test: EMSA

B1: b66-G4 (structured_DNA)
DNA: TTTTTTTTTTTTTTTTTTTTTTTTTTTTTTTTTTTTTTTTTTTTTGGGTGGGTGGGTGGGTTTTTT
- binding result [1]: binds

- binding result [2]: binds
B2: Flag-tagged FANCJ (enzyme)
chain: MSSMWSEYTIGGVKIYFPYKAYPSQLAMMNSILRGLNSKQHCLLESPTGSGKSLALLCSALAWQQSLSGKPADEGVSEKAEVQLSCCCACHSKDFTNNDMNQGTSRHFNYPSTPPSERNGTSSTCQDSPEKTTLAAKLSAKKQASIYRDENDDFQVEKKRIRPLETTQQIRKRHCFGTEVHNLDAKVDSGKTVKLNSPLEKINSFSPQKPPGHCSRCCCSTKQGNSQESSNTIKKDHTGKSKIPKIYFGTRTHKQIAQITRELRRTAYSGVPMTILSSRDHTCVHPEVVGNFNRNEKCMELLDGKNGKSCYFYHGVHKISDQHTLQTFQGMCKAWDIEELVSLGKKLKACPYYTARELIQDADIIFCPYNYLLDAQIRESMDLNLKEQVVILDEAHNIEDCARESASYSVTEVQLRFARDELDSMVNNNIRKKDHEPLRAVCCSLINWLEANAEYLVERDYESACKIWSGNEMLLTLHKMGITTATFPILQGHFSAVLQKEEKISPIYGKEEAREVPVISASTQIMLKGLFMVLDYLFRQNSRFADDYKIAIQQTYSWTNQIDISDKNGLLVLPKNKKRSRQKTAVHVLNFWCLNPAVAFSDINGKVQTIVLTSGTLSPMKSFSSELGVTFTIQLEANHIIKNSQVWVGTIGSGPKGRNLCATFQNTETFEFQDEVGALLLSVCQTVSQGILCFLPSYKLLEKLKERWLSTGLWHNLELVKTVIVEPQGGEKTNFDELLQVYYDAIKYKGEKDGALLVAVCRGKVSEGLDFSDDNARAVITIGIPFPNVKDLQVELKRQYNDHHSKLRGLLPGRQWYEIQAYRALNQALGRCIRHRNDWGALILVDDRFRNNPSRYISGLSKWVRQQIQHHSTFESALESLAEFSKKHQKVLNVSIKDRTNIQDNESTLEVTSLKYSTSPYLLEAASHLSPENFVEDEAKICVQELQCPKIITKNSPLPSSIISRKEKNDPVFLEEAGKAEKIVISRSTSPTFNKQTKRVSWSSFNSLGQYFTGKIPKATPELGSSENSASSPPRFKTEKMESKTVLPFTDKCESSNLTVNTSFGSCPQSETIISSLKIDATLTRKNHSEHPLCSEEALDPDIELSLVSEEDKQSTSNRDFETEAEDESIYFTPELYDPEDTDEEKNDLAETDRGNRLANNSDCILAKDLFEIRTIKEVDSAREVKAEDCIDTKLNGILHIEESKIDDIDGNVKTTWINELELGKTHEIEIKNFKPSPSKNKGMFPGFK

Binder: AGGGGGGAGGGAGGGTGG (structured_DNA) [CEB1 G4]
- binding result [3]: binds
